The source of these data is patent US20180371091A1 (JOUNCE THERAPEUTICS, published 2018).

The Kd is the constant that tells how readily two partners part at equilibrium.

Assay in all cases: BLI (Octet RED96), monovalent, monomeric ICOS; mean ± SEM of 6 experiments
The target of assay [1] is T1, monovalent, heterodimeric human ICOS-Fc (human).
T1 construct: Make-up of the heterodimer is not described; also called Monomeric hICOS; monomeric form of human ICOS; not shown: The human IgG1 Fc fused to ICOS, and the partner Fc chain of the heterodimer
T1 chain: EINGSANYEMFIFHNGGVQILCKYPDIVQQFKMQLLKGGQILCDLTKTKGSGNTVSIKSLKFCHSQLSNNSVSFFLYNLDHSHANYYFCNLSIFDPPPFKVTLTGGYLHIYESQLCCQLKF
The method, then: (§1) The affinity of a humanized antibody having the variable regions of 37A10S713 for monomeric forms of ICOS from human, cynomolgus monkey and rat was measured by Bio-Layer Interferometry (BLI) technology (ForteBio Octet® RED96) and KD's are shown in Table 5. […] Functionality of binding was confirmed by assessing potency of inducing proliferation of primary CD4+ T cells isolated from each species.

For assay [2], the target named is T2, monomeric form of cynomolgus monkey ICOS (cynomolgus monkey, UniProt Q9Y6W8 21-140 (human entry), limits assumed).
T2 chain: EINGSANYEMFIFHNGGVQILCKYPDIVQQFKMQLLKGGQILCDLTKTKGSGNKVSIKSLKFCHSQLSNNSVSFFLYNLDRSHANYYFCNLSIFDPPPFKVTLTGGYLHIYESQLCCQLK
Here is the method: as §1

Assay [3] has as its target T3, monomeric form of rat ICOS (rat, UniProt Q9R1T7 21-145, limits assumed).
T3 sequence: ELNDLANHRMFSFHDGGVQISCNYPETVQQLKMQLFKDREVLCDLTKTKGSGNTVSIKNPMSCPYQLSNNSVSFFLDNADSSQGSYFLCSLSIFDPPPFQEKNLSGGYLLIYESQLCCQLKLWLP
The method, then: as §1

B1: 37A10S713 (antibody, V domains shown)
VH: EVQLVESGGGLVQPGGSLRLSCAASGFTFSDYWMDWVRQAPGKGLVWVSNIDEDGSITEYSPFVKGRFTISRDNAKNTLYLQMNSLRAEDTAVYYCTRWGRFGFDSWGQGTLVTVSS
VL: DIVMTQSPDSLAVSLGERATINCKSSQSLLSGSFNYLTWYQQKPGQPPKLLIFYASTRHTGVPDRFSGSGSGTDFTLTISSLQAEDVAVYYCHHHYNAPPTFGPGTKVDIK
notes: also called humanized antibody having the variable regions of 37A10S713; 37A10S713-hIgG1
Consider B1, for which the results for the dissociation constant Kd in assay [1], in assay [2] and in assay [3] were 1.5 nM, 0.66 nM and 7.2 nM, respectively.
